Assay results: the DeepSol protein solubility set

experiment: soluble on expression in E. coli; label from the status in PepcDB or PDB records

Question: Which “soluble on expression in E. coli” value does the source give for “MCSISRGKLSTVLKSTSSCIFENLAYEEHIFRTHNVAQNGEILLMWSNRPAVVIGRHQNPWIEVNIPYANKNNIQIVRRHSGGGTVYHDLGNLNISLLTTHAQHCRPKNLKFISDALNQQFSVKIVPNKRDDMELHPGERKCSGTAARIARGQAYHHLTLLVGADLQVLSKSLKSPWRDKIESNATRSVRAPAVGFLKQDDANANVEQSKLAIVEAYRKLFEESHIKTVNVAEEVKKNAEISKIFDELKAWKWIYGKSPKFQYSRENKSIIEMMRTAHKDREPWRDIRRMSKWQGVRVCDEPSPWYMSIPTPFSQFHNVLPEEQEEMVFTELKLFLVGNQTENIRIDEYDKHDLPISILANISFDPFIRSELERFHDILVTVATIKICCYAITHDSVTFSSISSAVASTIEKKVNGFITKICTKLSGSTEANQQMNQLLREMHTIHESLNFYNGIVKSIYLDQLIGGQVLSLLDSKRRHVFSGNVVQNLDDVFQAGWKVFARSIGRLVCKFEADHMDYEFVIWSTKQMTDSQCKTLVPSNPSRQIKSSRYVVIESLCPDFFKKYLDILVRCAEFGDSAKSDSSLRRSTSKKINESESVESVMEDVRNVDWSNLDVATTVRMLVQFSRKESACLLREITSATNVDQAIRDIHDLLIKGSCAHDVMLFGLKADILQKPIDEVGNIRMKKLTNDVLGAAAEKHHPFWKYFSFVIDKQNVFEMLGQRTSLGGNADNLRDNVTPMLFECISVKMDCPIEIEPIISMKAVFILTPVFRIWIQLHVASYTIANYRDSIRGQMPSRSLGDIAMKKHLMHALDAEISSIKQKWVGYVDLLINLYYERIQKAASLDEYTECQDILASDVTNMMGISELSQLENIKDILNIIWNYDNADSNLADLIADFEEVQSRARMDVVVA” here?
Answer: not soluble

Question: Which “soluble on expression in E. coli” value does the source give for “GMSAGKTVVIALGGNAMLQAKEKGDYDTQRKNVEIAASEIYKIHKAGYKVVLTSGNGPQVGAIKLQNQAAAGVSPEMPLHVCGAMSQGFIGYMMSQAMDNVFCANNEPANCVTCVTQTLVDPKDQAFTNPTKPVGRFYTEQEAKDLMAANPGKILREDAGRGWRVVVPSPRPLEIVEYGVIKTLIDNNVLVICTNGGGIPCKRENKVISGVDAVIDKDLATSLLAKTLNSDYLMILTDVLNACINYKKPDERKLEEIKLSEILALEKDGHFAAGSMGPKVRAAIEFTQATGKMSIITSLSTAVDALNGKCGTRIIKD” here?
Answer: soluble

Question: For “MGDEYMDDDEDYGFEYEDDSGSEPDVDMENQYYTAKGLRSDGKLDEAIKSFEKVLELEGEKGEWGFKALKQMIKITFGQNRLEKMLEYYRQLLTYIKSAVTKNYSEKSINAILDYISTSRQMDLLQHFYETTLDALKDAKNERLWFKTNTKLGKLFFDLHEFTKLEKIVKQLKVSCKNEQGEEDQRKGTQLLEIYALEIQMYTEQKNNKALKWVYELATQAIHTKSAIPHPLILGTIRECGGKMHLRDGRFLDAHTDFFEAFKNYDESGSPRRTTCLKYLVLANMLIKSDINPFDSQEAKPFKNEPEIVAMTQMVQAYQDNDIQAFEQIMAAHQDSIMADPFIREHTEELMNNIRTQVLLRLIRPYTNVRISYLSQKLKVSQKEVIHLLVDAILDDGLEAKINEESGMIEMPKNKKKMMVTSLVVPNAGDQGTTKSDSKPGTSSEPSTTTSVTSSILQGPPATSSCHQELSMDGLRVWAERIDSIQSNIGTRIKF”, which “soluble on expression in E. coli” value is on record?
Answer: not soluble

Question: With “MGSDKIHHHHHHMTNLLEASIEQAGYTSRKKVLTDVFLEVRKGELVGLIGANGAGKSTAIKAILGLSEDFKGHIAWNDCSFAYIPEHPSFYEELTLWEHLDLISTLHGIEESEFAHRAQSLLQTFSLDHVKHELPVTFSKGMQQKLMLIQAFLSKPDMYVIDEPFIGLDPISTKRFVDMLKAEKERGAGILMCTHVLDTAEKICDRFYMIEKGSLFLQGTLKDVQDKTGLEGQSLLDCFYKAVQGDRL” as the sequence, how does the “soluble on expression in E. coli” value read?
Answer: not soluble

Question: For “MSNWTTYPQKNLTQAEQLAQLIKEADALVVGIGAGMSAADGFTYIGSRFETAFPDFIAKYQFLDMLQASLFDFEDWQEYWAFQSRFVALNYLDQPVGQSYLDLKEILGTKDYHIITTNADNAFWVAGYDPHNIFHIQGEYGLWQCSQHCHQQTYKDDTVIRQMIAEQKNMKVPGQLIPHCPECEAPFEINKRNEEKGMVEDADFHAQKARYEAFLSEHKEGKVLYLEIGVGHTTPQFIKHPFWKRVSENPNALFVTLNHKHYRIPLSIRRQSLELTEHIAQLISATKTIYQKS”, which “soluble on expression in E. coli” value is on record?
Answer: not soluble

Question: For “MGSDKIHHHHHHMKVLIITNLFPLNNNSNSGIFVVQRLRHYKSFNVNLDTISLGHHNSKIASLLEKLLRGHSNKKTLEEVENVKFYPVSIEINLLRLIKYGLLRNYFTVLCKEYKKMIEEAFNLNEYDLIHAHGMYSVPAGLTAKILAEKYRKPFIVTLHGSDVNLFMPHRKEIYVSILESASATIFVSKALLEKAKSLGFSGKNAVVIPNGYDETIFKPMDKEAVRKELGIHREGYKYVGFVGNLIPIKRADKLGEIFHLIAKEIPETFFIIVGDGPLRKKIEKETKGLNIIFTGRLPQKDVAKYMNAMDVMVLPSRNEGWPCVILEAQACGTCVIGSSNRGIPEAIGFPEYVVEEGDQFEERFARRVVEVLNEGYDVNRILERAKGFTWRNIVEKEIDVHKRVVLKS”, which “soluble on expression in E. coli” value is on record?
Answer: not soluble

Question: With “MVNQEKTLDVGFTHADFAALLDRYDYHFNPGDIVAGTVFSIEPKGALIDIGAKTAAYIPIQEMSINRIESPEEVLQPNETREFFILADENEEGQLTLSIRRIEYMRAWERVRQLQAEDATVRSQVFATNRGGALVRIEGLRGFIPGSHISTRVNKEELVGEELPLKFLEVDEERNRLVLSHRRALVERKMNKLEVGEVVVGTVRGIKPYGAFIDIGGVSGLLHISEISHDHIDTPHSVFNVNDQVKVMIIDLDAERGRISLSTKQLEPEPGDMVKNPQLVYEKAEEMAERYRQQLLQQQQQAAGETPEEGMEDIPEATEDDSPAPILQEALEHHHHHH” as the sequence, how does the “soluble on expression in E. coli” value read?
Answer: not soluble

Question: With “MEQYYGTGRRKEAVARVFLRPGNGKVTVNGQDFNEYFQGLVRAVAALEPLRAVDALGHFDAYITVRGGGKSGQIDAIKLGIARALVQYNPDYRAKLKPLGFLTRDARVVERKKYGKHKARRAPQYSKR” as the sequence, how does the “soluble on expression in E. coli” value read?
Answer: soluble

Question: For “NGEVEVPKTELEEIQQQCNQVTDDSLESTRRMLNMCEESKEAGIRTLVMLDEQGEQLDRIEEGLDQINQDMKDAEKNLEGMEK”, which “soluble on expression in E. coli” value is on record?
Answer: soluble

Question: Which “soluble on expression in E. coli” value does the source give for “GPGSMLRRTLRRLMPSDAIGSVHPDVLWGYQQGQYAGPGWANFVKSLPLETLAMQGGSTMANLNDRAGTFLDPEDPRHPLALMQFGIMGKMDGTFHQLAYGDFGRVPKGSRLMQVLYENYLEPFSMNRVCAQLYFYQKVPNNYHASVDATAEYVGQTASLVGQVVVGLGACIMEGVTIRADTNCVYIAEGVQILENTCIMSDAPTDLLAYQRHELLNPYQQWDGMDGVTRIMPNTIIESNCYLDGCSIGSFNRIGHNTKIMKGVTTGIMVHIMPGSVVTADTKIGDGELWGGAPACKIGEVSKFEYKRPYYASLLHRESVAESYRNMSRYGDQFVHYMNAMGQLETLMIHYEDHVTPGIKAKVRDFEEGREPFHHTITRIAQGWSPANRPDDKNFAMAPPAPGVKLFAEHNTDSSPSEWNGSYANITNIFNDFRW” here?
Answer: not soluble

Question: For “MKITYIHHSSFLVELEHVSMLFDYYAGQLPEIRKDRPLVVFASHFHGDHFAPVIFDLAKDREDVNYVLSKDISKKKVPDNLIGRVTFVKAGEKLALYTEGRKAGLEIETFKSTDEGVAFWITCEGSTIYHAGDLNNWWWEGEDKAWNHNMAANYAHEMEKMEGRTVDAAFVPLDPRLEQWFYLGMKEFMEKVDAKAVIPMHFWKDYSIIEKMRQHPSSEGWRERLVEIHREGEELAI”, which “soluble on expression in E. coli” value is on record?
Answer: not soluble

Question: With “MTDEAFAQADPEWLALIRAAREWLSGPLGQLLLEEERRVLDEELGRYFGGYLVHYGPSAQNPPVAPQVQRNVRLGAPLPGVEIVCEEQAWPLSEHAADVVVLQHGLDFCLSPHGLLREAASSVRPGGHLLIIGINPWSAWGVRHVFARDALRKARCISSSRVADWLNLLGFALEKRRFGCYRPPLASAAWQSRLAGLESLGEGRQSPGGGFYLLVARKLVVGLRPLRQVRRDPIGKLIPMPMAKVSRNTQDCS” as the sequence, how does the “soluble on expression in E. coli” value read?
Answer: not soluble

Question: For “MKMNPRCTYCLLSRVHFQSKLSTDDEDLISRTIHECLGVMNKHYSPEAVSSRVATKVHRKCYEVLRDSDPYEVTKKLINQAALKVLPAAKEKIYENSPDDGELFKRAVLASVIANYFDFGIMGFDASEDKFEAAFLKYYEQGLDVDDTPEMLGLLQDVVYIADNCGEILFDAIVFDVIKKLGGNITLVVRGGPILTDVTLEEIKEFEIDKKVDRVMTTGSNAVGVLVEEAPAELLDAMKNATLIISKGMANYETLSEHNFGPIAYMLLTKCECVAEDLGLETGLSVAKLMNFPLEHHHHHH”, which “soluble on expression in E. coli” value is on record?
Answer: soluble

Question: For “GSHGLCKNLLQEYAQKMNYAIPLYQCQKVETLGRVTQFTCTVEIGGIKYTGAATRTKKDAEISAGRTALLAIQSDT”, which “soluble on expression in E. coli” value is on record?
Answer: soluble

Question: With “MVTKEQVVEALEGIVDPFLHKTLKETSAIKEVTVKPEKEHVSVKIAIVKTGTAEQMQLQSGIVKLVKELGAATVGLRFAEFTEEELAQFAPEQEEEQSESLLSPNSKTTFLAVASGKGGVGKSTVSVNLAVALARLGKKVGIIDADIYGFSVPDMMGIEKRPIVRGDKIIPVERLGVKVISMGFFVEDNAPVIWRGPMLGKMLNHFFTEVEWGDLDYLVLDLPPGTGDVALDVHSMLPSCKEIIVTTPHPTAAFVAARAGAMALRTEHSILGVVENMAYFESKVTGEKEYVFGKGGGDKLATELQTNVLGRIPLQQPDWNKEDFAPSVYEDTHTTGIIYSKIAETVIDKTAVTQKLEHHHHHH” as the sequence, how does the “soluble on expression in E. coli” value read?
Answer: soluble

Question: With “MSLSDRWDQTGLKTRVDGVLRSFLDEEAAHLAAVDAALAPVADQLRKAAGHGKRLRAAFCYWGWRAAGQPESDALVRAAASMELVHAAAVVHDDLIDDSRLRHGLPTAHVALEAVLARDGRPDARTAARSLAMLVGDQLMVLAGLLFTTSGLPAAYLARARDLWAVLARELVAGECLEILHTGGPPDTGTSLKVVRYKTAKYTVEHPLLIGGLLAGAAPALRDTYRAYALPLGEAFQLRDDLLGLFGDPERTGKASLDDLRAHRPTALLAETWKAADASQRQWLRRLLGRDDLDATHLHDVRRLMRELNAPQRVEQMIADRVERATRALDGAGTPPHARRALRELAQQATDRTHEGHHHHHH” as the sequence, how does the “soluble on expression in E. coli” value read?
Answer: soluble

Question: With “TQNPIANPLAAKKRRDHVLERLLEEHYINEEQYQNAVNQPITAKYHGTNIKVKAPYVAEMIRQSLYDNFGPEAYTKGY” as the sequence, how does the “soluble on expression in E. coli” value read?
Answer: not soluble

Question: With “SLDPLFTTQILKYKGDESFTCNDTLVREIKLEIFINDEKVGALMATPVDEQALAIGYLMSENIIAKVSDIESIETKDDGMSVHIKAKIDKENLAKLNAEGVVISGCGRAHTANIDPEAIEASKISSDAKFSKDEILKQMSTFYTQCELYEKTGCVHTAKLFVDEKTFFIGEDIAQHNTIDKALGKACLAGVDLSQCFLMVSGRLSSEMVAKAVMHKIPVLVSRTAPTCLGVMIARKFDLTLCGFARENKINIYSGEFRIHG” as the sequence, how does the “soluble on expression in E. coli” value read?
Answer: soluble

Question: With “MNNLYPYGAPDSNLYARKQEEYDQQIAEAILAGIKREATAIELYRRLADEAPSEQHQHDIRQALENKQASLTQFTNAYRILTGQQPQLEVDDVSFYRFHEGLQKAYEIEVEGYEEYERSSALTENPHVQHAFWTALNTEYENTTRLYRSLHEEADHRVTDHGPRPFVVNIEDETKRNRAFRRALWTGDHLQVTLMSIQVGEDIGLEIHPHLDQFLRVEEGRGLVQMGHRQDNLHFQEEVFDDYAILIPAGTWHNVRNTGNRPLKLYSIYAPPQHPHGTVHETKAIAMAAEEHHHL” as the sequence, how does the “soluble on expression in E. coli” value read?
Answer: soluble

Question: With “MEDPLGRLEWIKFLSAFYDKEDKAENYFNQQVSKVMATENKVSSLKKPKVAFGMVDNGKVYIPAKNSYAAKMVDMAGGDYIFKDLNNKSGYITLEDFYSKSKDADVLIYSSSKEYTPSLKSMLSAAPILKTIKPVKNKKVWCFGKDYYQAIDKTDEIIEDLASIFHPESFKGLEHHHHHH” as the sequence, how does the “soluble on expression in E. coli” value read?
Answer: not soluble

Question: For “MGSDKIHHHHHHMYIQIVFAVKGRNSLIHPSWENELHKYMTGFIQNNGQKLLAINGMPDHIHILIGMKPSCCLSDLIRELKKSSSSFIKDKKLSPYAFQWQEGYGAFSYSHSNLNQVIAYIMNQKEHHKKRTFKEEYLEFIQKFELEYNPKNLFEWMD”, which “soluble on expression in E. coli” value is on record?
Answer: not soluble
